These are literature values, as cited in PMC3623542.

Data set [1] concerns the target DnaK (Escherichia coli) (UniProt P0A6Y8). Briefly: NMR.
Data set [2] has the same target. Briefly: SPR.
Data set [3] shares this target.
The target is the same in data set [4]. Briefly: SPR. The source holds these as a separate data set. (Surface plasmon resonance follows binding to a sensor surface in real time, without labels.)
For data set [5] the target is unchanged. This is another data set of the same source.
The target is the same in data set [6]. Nature of the data set: SPR. This is another data set of the same source.

Read-outs that look alike come from different tables or passages of the source. Where only a bound is given, the exact number is not on record here.

DnaK (Escherichia coli), sequence (P0A6Y8 2-638): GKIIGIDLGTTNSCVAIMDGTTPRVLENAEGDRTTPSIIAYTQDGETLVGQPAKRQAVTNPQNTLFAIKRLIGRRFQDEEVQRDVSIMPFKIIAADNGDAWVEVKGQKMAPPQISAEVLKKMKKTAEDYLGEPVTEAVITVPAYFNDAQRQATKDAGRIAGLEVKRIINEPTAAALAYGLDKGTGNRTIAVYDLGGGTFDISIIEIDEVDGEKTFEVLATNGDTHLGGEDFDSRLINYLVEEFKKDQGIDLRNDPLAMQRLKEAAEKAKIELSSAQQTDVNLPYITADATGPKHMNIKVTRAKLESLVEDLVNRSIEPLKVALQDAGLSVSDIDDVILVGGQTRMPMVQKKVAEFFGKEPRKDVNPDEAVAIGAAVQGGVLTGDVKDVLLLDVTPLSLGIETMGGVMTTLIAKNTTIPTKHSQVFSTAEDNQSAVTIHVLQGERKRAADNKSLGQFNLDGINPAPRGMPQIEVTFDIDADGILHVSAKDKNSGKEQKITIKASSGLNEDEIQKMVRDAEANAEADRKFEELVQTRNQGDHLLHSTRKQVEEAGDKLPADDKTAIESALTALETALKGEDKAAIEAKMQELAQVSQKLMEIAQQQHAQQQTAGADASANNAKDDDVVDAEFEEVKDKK
DnaJ, sequence (P08622 2-376): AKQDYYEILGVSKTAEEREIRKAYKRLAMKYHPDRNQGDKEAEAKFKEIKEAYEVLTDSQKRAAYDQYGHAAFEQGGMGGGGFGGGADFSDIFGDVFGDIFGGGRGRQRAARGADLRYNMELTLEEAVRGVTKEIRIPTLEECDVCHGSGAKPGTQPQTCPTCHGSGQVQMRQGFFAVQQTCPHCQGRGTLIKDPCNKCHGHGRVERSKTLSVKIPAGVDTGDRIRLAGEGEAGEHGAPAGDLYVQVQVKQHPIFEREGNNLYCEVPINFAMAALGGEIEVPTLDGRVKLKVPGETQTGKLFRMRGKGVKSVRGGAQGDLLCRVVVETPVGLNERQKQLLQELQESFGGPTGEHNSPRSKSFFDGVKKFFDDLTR
DnaJ 1-75, sequence (P08622 1-75): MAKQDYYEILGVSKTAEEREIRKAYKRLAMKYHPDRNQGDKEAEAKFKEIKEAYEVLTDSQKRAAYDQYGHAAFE

In the case of DnaJ 1-75 (from UniProt P08622), in the data set with DnaK (Escherichia coli) [1], the Kd (usually a measure of binding affinity in units of concentration) was 10000 nM.
As for DnaJ (from UniProt P08622), the Kd with DnaK (Escherichia coli) [2] was 300 nM; with DnaK (Escherichia coli) [3], above 2000 nM; in the data set with DnaK (Escherichia coli) [4] it was 70 nM; in the data set with DnaK (Escherichia coli) [5], 140 nM; with DnaK (Escherichia coli) [6] it was above 1000 nM.
